Reference: patent US20210179689A1 (SHATTUCK LABS, published 2021)
Values belong to the molecule of their own block, whether it stands above or below them.

Experiments:
murine CD40 [1] = target: T1, murine CD40 (murine, UniProt P27512 20-193, limits assumed); assay: Octet biolayer interferometry; Loading Sample ID mCD40-his; Full R^2 0.7077
T1 construct: also called mCD40
T1 sequence (looked up): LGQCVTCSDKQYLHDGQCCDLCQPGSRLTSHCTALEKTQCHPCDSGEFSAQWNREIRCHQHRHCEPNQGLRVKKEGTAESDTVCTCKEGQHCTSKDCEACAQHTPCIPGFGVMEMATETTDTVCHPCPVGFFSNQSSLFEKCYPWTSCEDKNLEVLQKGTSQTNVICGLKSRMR

human CD40 [2] = target: T2, human CD40 (human, UniProt P25942 21-193); assay: Octet biolayer interferometry; Loading Sample ID hCD40-his; kdis(1/s); Full R^2 0.9682
T2 construct: also called hCD40

murine CD40 [3] = target: T1, murine CD40; assay: Octet biolayer interferometry; Loading Sample ID mCD40-his; kdis(1/s); Full R^2 0.7077
human CD40 [4] = target: T2, human CD40; assay: Octet biolayer interferometry; Loading Sample ID hCD40-his; Full R^2 0.9682
[5] = target: murine galectin-9 (murine) (UniProt O08573); assay: Octet biolayer interferometry; Loading Sample ID mGal9; kdis(1/s); Full R^2 0.9973
human CD40 [6] = target: T2, human CD40; assay: Octet biolayer interferometry; Loading Sample ID hCD40-his; Full R^2 0.9393
human CD40 [7] = target: T2, human CD40; assay: Octet biolayer interferometry; Loading Sample ID hCD40-his; kdis(1/s); Full R^2 0.9810
[8] = target: recombinant mouse CD40-Fc protein (mouse) (UniProt P27512); assay: ELISA: coat mCD40-Fc, detection anti-mCD40L and an HRP conjugate
murine CD40 [9] = target: T1, murine CD40; assay: Octet biolayer interferometry; Loading Sample ID mCD40-his; kdis(1/s); Full R^2 0.7890
murine CD40 [10] = target: T1, murine CD40; assay: Octet biolayer interferometry; Loading Sample ID mCD40-his; kdis(1/s); Full R^2 0.9955
human CD40 [11] = target: T2, human CD40; assay: Octet biolayer interferometry; Loading Sample ID hCD40-his; kdis(1/s); Full R^2 0.9393
human CD40 [12] = target: T2, human CD40; assay: Octet biolayer interferometry; Loading Sample ID hCD40-his; Full R^2 0.3080
human galectin-9 (human) [13] = target: human galectin-9 (human) (UniProt O00182); assay: Octet biolayer interferometry; Loading Sample ID hGal9; kdis(1/s); Full R^2 0.9934
mIgG Fc gamma [14] = assay: sandwich ELISA: coat mIgG Fc gamma, detection goat anti-mouse Fc (H+L) HRP
murine CD40 [15] = target: T1, murine CD40; assay: Octet biolayer interferometry; Loading Sample ID mCD40-his; Full R^2 0.9955
human galectin-9 (human) [16] = target: human galectin-9 (human) (UniProt O00182); assay: Octet biolayer interferometry; Loading Sample ID hGal9; Full R^2 0.9934
murine CD40 [17] = target: T1, murine CD40; assay: Octet biolayer interferometry; Loading Sample ID mCD40-his; Full R^2 0.7890
human CD40 [18] = target: T2, human CD40; assay: Octet biolayer interferometry; Loading Sample ID hCD40-his; kdis(1/s); Full R^2 0.3080
human CD40 [19] = target: T2, human CD40; assay: Octet biolayer interferometry; Loading Sample ID hCD40-his; Full R^2 0.9810
[20] = target: murine galectin-9 (murine) (UniProt O08573); assay: Octet biolayer interferometry; Loading Sample ID mGal9; Full R^2 0.9866
[21] = target: murine galectin-9 (murine) (UniProt O08573); assay: Octet biolayer interferometry; Loading Sample ID mGal9; Full R^2 0.9973
[22] = target: murine galectin-9 (murine) (UniProt O08573); assay: Octet biolayer interferometry; Loading Sample ID mGal9; kdis(1/s); Full R^2 0.9866
mIgG Fc gamma [23] = assay: sandwich ELISA: coat mIgG Fc gamma, detection goat anti-mouse Fc (H+L) HRP; standard: mouse whole IgG
murine CD40 [24] = target: T1, murine CD40; assay: Octet biolayer interferometry; Loading Sample ID mCD40-his; Full R^2 0.9077
murine CD40 [25] = target: T1, murine CD40; assay: Octet biolayer interferometry; Loading Sample ID mCD40-his; KD and kdis cells blank; Full R^2 0.6015
human CD40 [26] = target: T2, human CD40; assay: Octet biolayer interferometry; Loading Sample ID hCD40-his; kdis(1/s); Full R^2 0.5111
murine CD40 [27] = target: T1, murine CD40; assay: Octet biolayer interferometry; Loading Sample ID mCD40-his; kdis(1/s); Full R^2 0.9077
human CD40 [28] = target: T2, human CD40; assay: Octet biolayer interferometry; Loading Sample ID hCD40-his; Full R^2 0.5111

T2 sequence (P25942 21-193 limits assumed): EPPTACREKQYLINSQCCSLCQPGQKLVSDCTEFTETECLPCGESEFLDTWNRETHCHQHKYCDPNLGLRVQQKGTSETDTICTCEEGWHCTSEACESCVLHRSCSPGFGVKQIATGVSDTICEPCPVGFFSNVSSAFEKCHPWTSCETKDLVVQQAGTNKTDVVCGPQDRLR
Sequence of murine galectin-9 (murine) (O08573 other isoform, or with tags, fused parts or gaps limits assumed): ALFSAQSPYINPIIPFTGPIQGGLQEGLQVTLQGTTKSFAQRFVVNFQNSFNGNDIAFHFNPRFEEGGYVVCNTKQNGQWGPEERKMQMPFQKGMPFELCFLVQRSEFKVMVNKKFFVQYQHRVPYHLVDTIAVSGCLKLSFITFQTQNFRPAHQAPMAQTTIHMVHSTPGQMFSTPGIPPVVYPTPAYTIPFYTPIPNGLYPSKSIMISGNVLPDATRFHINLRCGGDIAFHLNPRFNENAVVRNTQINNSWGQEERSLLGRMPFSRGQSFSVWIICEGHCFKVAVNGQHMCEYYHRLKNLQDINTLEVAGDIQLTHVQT
Sequence of human galectin-9 (human) (O00182 other isoform, or with tags, fused parts or gaps limits assumed): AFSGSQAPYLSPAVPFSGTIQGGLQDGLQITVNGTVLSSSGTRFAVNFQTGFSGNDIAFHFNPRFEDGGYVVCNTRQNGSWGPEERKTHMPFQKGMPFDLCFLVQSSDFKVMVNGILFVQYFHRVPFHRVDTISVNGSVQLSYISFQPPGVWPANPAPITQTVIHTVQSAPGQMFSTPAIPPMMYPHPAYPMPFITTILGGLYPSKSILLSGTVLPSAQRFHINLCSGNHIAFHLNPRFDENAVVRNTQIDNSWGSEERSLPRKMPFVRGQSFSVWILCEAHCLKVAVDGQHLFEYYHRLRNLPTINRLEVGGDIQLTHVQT

Molecule: mTIM-3-Fc-CD40L chimeric protein (from UniProt Q8VIM0 20-193; P27548 47-260) (Fc fusion)
koff [5]: 0.00098 s⁻¹
Kd (human CD40 [6]): 9.46 nM
kon (human CD40 [6]): 59400 M⁻¹ s⁻¹
koff (human CD40 [7]): 0.000103 s⁻¹
EC50 (read off the curve) [8]: 10 nM
koff (murine CD40 [9]): 0.00286 s⁻¹
koff (murine CD40 [10]): 0.000295 s⁻¹
koff (human CD40 [11]): 0.000733 s⁻¹
Kd (human CD40 [12]): 9.37 nM
koff (human galectin-9 (human) [13]): 0.00108 s⁻¹
EC50 (read off the curve) (mIgG Fc gamma [14]): 4 nM
Kd (murine CD40 [15]): 8.92 nM
kon (murine CD40 [15]): 33700 M⁻¹ s⁻¹
Kd (human galectin-9 (human) [16]): 69 nM
Kd (murine CD40 [17]): 29.9 nM
kon (murine CD40 [17]): 79200 M⁻¹ s⁻¹
koff (human CD40 [18]): 0.00103 s⁻¹
Kd (human CD40 [19]): 3 nM
kon (human CD40 [19]): 30600 M⁻¹ s⁻¹
Kd [20]: 7.07 nM
kon [20]: 114000 M⁻¹ s⁻¹
Kd [21]: 16.7 nM
kon [21]: 58500 M⁻¹ s⁻¹
koff [22]: 0.000803 s⁻¹

B1: mCD40L-Fc fusion protein (Fc fusion, murine, UniProt P27548 112-260, looked up)
chain: MQRGDEDPQIAAHVVSEANSNAASVLQWAKKGYYTMKSNLVMLENGKQLTVKREGLYYVYTQVTFCSNREPSSQRPFIVGLWLKPSSGSERILLKAANTHSSSQLCEQQSVHLGGVFELQAGASVFVNVTEASQVIHRVGFSSFGLLKL
notes: also called recombinant mCD40L-Fc protein; not shown: Fc part
Kd (murine CD40 [24]): 14.1 nM
kon (murine CD40 [24]): 81500 M⁻¹ s⁻¹
kon (murine CD40 [25]): 118000 M⁻¹ s⁻¹
koff (human CD40 [26]): 0.00115 s⁻¹
koff (murine CD40 [27]): 0.00114 s⁻¹
Kd (human CD40 [28]): 4.8 nM
kon (human CD40 [28]): 220000 M⁻¹ s⁻¹

Second part, the molecule after the results:

Kd (murine CD40 [1]): 10.6 nM
kon (murine CD40 [1]): 229000 M⁻¹ s⁻¹
koff (human CD40 [2]): 0.000734 s⁻¹
koff (murine CD40 [3]): 0.00241 s⁻¹
Kd (human CD40 [4]): 6.18 nM
kon (human CD40 [4]): 120000 M⁻¹ s⁻¹
Molecule: hCD40L-Fc (Fc fusion)

EC50 (read off the curve) (mIgG Fc gamma [23]): 2 nM
Molecule: mouse IgG (antibody)
